T1: Human ASGR-2 (human, UniProt P07307 1-311)
T1 construct: Expressed on HEK 293 cells; cDNA GenBank NM_080913.3; also called huASGR-2; hASGR-2
T1 sequence: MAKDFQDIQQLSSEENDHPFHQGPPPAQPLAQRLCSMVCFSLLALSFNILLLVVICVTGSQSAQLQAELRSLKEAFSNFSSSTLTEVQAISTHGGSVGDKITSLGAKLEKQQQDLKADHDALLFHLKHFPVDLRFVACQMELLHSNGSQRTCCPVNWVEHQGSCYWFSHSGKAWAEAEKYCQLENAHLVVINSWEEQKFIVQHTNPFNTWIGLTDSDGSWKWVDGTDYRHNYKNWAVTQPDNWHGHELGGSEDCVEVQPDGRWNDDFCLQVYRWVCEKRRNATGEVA

B1: 176H4 (antibody, V domains shown)
VH: QVQLVESGGGVVQPGRSLRLSCAASGFTFSSYGMHWVRQAPGKGLEWVAIIWYDGSYKYYADSVKGRFTISRDNSKNTLYLQMSSLRAEDTAVYYCARDAHDFWSGYFAYWGQGALVTVSS
VL: DIVMTQTPLSLSVTPGQPASISCKSSQSLLHGDGKTYLYWYLQKPGQPPQLLIYEVSNRFSGVPDRFSGSGSGTDFTLKISRVEAEDVGIYYCMQSIQIPWTFGQGTRVEIK
notes: Tested as hybridoma supernatant at normalized concentration
B2: 54E9 (antibody, V domains shown)
VH: QVQLVQSGAEVKKPGASVKVSCKASGYTFNSYGISWVRLAPGQGLEWMGWISAYNGNTKNAQKLQGRVTMTTDTSTSTAYMELRSLRSDDTAVYYCARHDFWSGYYKGMDVWGQGTTVTVSS
VL: not shown
notes: as for B1
B3: 202A3 (antibody, V domains shown)
VH: QVQLEQSGAEVKKPGASVKVSCKASGYTFTSYDINWVRQATGQGLEWLGWMNPKRGNTGYAQKFQGRVTMTRNTSISTAHMELSSLRSEDTAVYYCARGRYSREDYYYYYDMDVWGQGTTVTVSS
VL: DIQMSQSPSSLSASVGDRVTITCRASQGIRNDLGWYQQKPGKAPKRLICAASRLQSGVPSRFSGSGSGTEFTLTISSLQPEDFAIYYCLQHHDYPFTFGPGTKVDIK
notes: as for B1
B4: 194C10 (antibody, V domains shown)
VH: QVQLQQWGAGLLKPSETLSLTCAVSGGSFRYYYWSWIRQPPGKGLEWFGEINHSGSTNYNPSLKSRVTISIDTSKNQFSLKLRSVTAADTAVYYCARDYGAFDIWGQGTMVTVSS
VL: EIVLTQSPGTLSLSPGERATLSCRASPSVNSGYLAWYQQKPGQTPRLLIFGASSRATGIPDRFSASGSGADFTLTISRLEPEDFAVYFCQQYESSPWTFGQGTKVEIK
notes: as for B1
B5: 193E7 (antibody, V domains shown)
VH: QVQLQQWGAGLLKPSETLSLTCAVYGGSFSGYFWTWIRQPPGKGLEWIGEINHSGSTNYNPSLKSRVTISVDTSKNQFSLKLSSVTAADTAVYYCARDYGADYWGQGTLVAVSA
VL: DIQMTQSPSSLSASVGDRVTITCRASQGIRNDLGWYQQKPGKAPKRLIYSASSLQRGVPSRFSGSGSGTEFTLTISSLQPEDFATYYCLQHKRYPLTFGGGTKVEIK
notes: as for B1
B6: 7G4 (antibody, V domains shown)
VH: QVQLVESGGGVVQPGRSLRLSCAASGFTFNNYVMHWVRQAPGKGLEWVAVIWYDGSNKYYADSVKGRFTISRDNSKNTLYLQMTSLRAEDTAVYYCAREKYSSNWYDYGMDVWGQGTTVTVSS
VL: DIQMTQSPSSLSASVGDRVTITCRASQGIRNDLGWYQQRPGKAPKRLIYAASSLQSGVPSRFSGSGSGTEFTLTISSLQPEDSATYYCLHQYSYPRTFGQGTKVEIK
notes: as for B1
B7: 5E5 (antibody, V domains shown)
VH: QVQLVESGGGVVQPGRSLRLSCAASGFTFSNYVMHWVRQAPGKGLEWVAVIWYDGSNKYYADSVKGRFTISRDNSKNTLYLQMNSLRAEDTAVYYCTREVYSSGWYDYGMDVWGQGTTVTVSS
VL: DIQMTQSPSSLSASVGDRVTITCRASQGIRNDLGWYQQKPGKAPKRLIYAASSLQSGVPSRFSGSGSGTEFTLTISSLQPEDFATYYCLQHYSYPRTFGQGTKVEVK
notes: as for B1
B8: 22G5 (antibody, V domains shown)
VH: EVQLLESGGGLVQPGGSLRLSCAASGFTFSSYAMNWVRQAPGMGLEWVSVISRSGGYTYYADSVKGRFTISRDNSKNTLYLQMNSLRAEDTAVYYCASRLAVAGSEAFDIWGQGTLVTVSS
VL: DIQMTQSPSSLSASVGDRVTITCRASQNISSYLNWYQQKQGKAPKLLIYAASSLQNGVPSRFSGRGSGTDFTLTISSLQPEDFATYYCQQSYRTPLFTFGPGTKVDFK
notes: as for B1
B9: 75G3 (antibody, V domains shown)
VH: QVQLQQWGAGLLKPSETLSLTCAVYGGSLSGSYWSWIRQPPGKGLEWIGEINLSGSTNYNPSLKSRVTISVDTSKSQFSLTLRSVTAADTAVYYCARDYGGLDYWGQGTLVTVSS
VL: EIVLTQSPGTLSLSPGERATLSCRARQNVDSSYLAWYQQKPGQAPRLLIYGASSRATGIPDRFSGSGSGTDFTLTISRLEPEDFAVFYCQQYERSPWTFGQGTKVEIK
notes: as for B1
B10: 190F8 (antibody, V domains shown)
VH: QVQLVESGGGVVQPGRSLRLSCAASGFTFSTYGMHWVRQAPGKGLEWVAVIWYDGSNKNYADSVKGRFTISRDNSKNTLYLQMNSLRAEDTAVYYCARDQGVGYDGLDVWGQGTTVTVSS
VL: DIQMTQSPSSLSASVGDRVTITCRTSQGIGNYLAWFQQKPGKAPKSLLYKASSLQSGVPSKFSGSGSGTDFTLTISSLQPEDFATYYCQQYMTYPLTFGGGTKVEIK
notes: as for B1
B11: 194C1 (antibody, V domains shown)
VH: QVQLVESGGGVVQPGRSLRLSCAASGFTFSSYGMHWVRQAPGKGLEWVAVIWYDGSNEHYADSVKGRFTISRDNSKNTLYLQMNSLRAEDTAVYYCARNRGVGYYGLDVWGQGTTVTVSS
VL: DIQMTQSPSSLSASVGDRVTITCRASQGISNYLAWFQQKPGKAPKSLIYAASSLQSGVPSKFSGSGSGTDFTLTISSLQPEDFATYYCLHYLTYPLTFGGGTKVEIK
notes: as for B1
B12: 197G3 (antibody, V domains shown)
VH: QVQLVESGGGVVQPGRSLRLSCVASGFTFSSHGMHWVRQAPGKGLEWVAVIWYDGSNKNYADSVKGRFTISRDNSKNTLYLQMNSLRAEDTAVYYCARDPSVGYDGMDVWGQGTTVTVSS
VL: DIQMTQSPSSLSASVGDRVTITCRASQGIGNHLAWFQQKPGKAPKSLIYAASSLQSGVPSKFSGSRSGTDFSLTISSLQPEDFATYYCQQYSNYPVTFGPGTKVDIK
notes: as for B1
B13: 191G10 (antibody, V domains shown)
VH: QVQLVESGGGVVQPGRSLRLSCAASGFTFSSYGMHWVRQAPGKGLEWVAVIWYDGSNKNYADSVKGRFTISRDNSKNTLYLQMNSLRAEDTAVYYCARDQGVGYDGLDVWGQGTTVTVSS
VL: DIQMTQSPSSLSASVGDRVTITCRTSQGIGKYLAWFQQKPGKAPKSLLYKVSSLQSGVPSKFSGSGSGTDFTLTISSLQPEDFATYYCQQYMTYPLTFGGGTKVEIK
notes: as for B1
B14: 191G1 (antibody, V domains shown)
VH: QVQLVESGGGVVQPGRSLRLSCAASGFTFSSYGMHWVRQAPGKGLEWVAVIWYDGSNEHYADSVKGRFTISRDNSKNTLYLQMNSLRAEDTAVYYCARDRGVGYYGLDVWGQGTTVTVSS
VL: DIQMTQSPSSLSASVGDRVTITCRASQGISNYLAWFQQKPGKAPKSLIYAASSLQSGVPSKFSGSGSGTDFTLTISSLQPEDFATYYCQHYLTYPLTFGGGTKVEIK
notes: as for B1
B15: 198G3 (antibody, V domains shown)
VH: QVQLVESGGGVVQPGRSLKLSCAASGFTFSTYGMHWVRQAPGKGLEWVAVIWYDGTNKNYADSVKGRFTISRDNSKNTLCLQMNSLRAEDTAVYYCARDQGVGYDGLDVWGQGTTVTVSS
VL: DIQMAQSPSSLSASVGDRVTITCRTSQGIGKYLAWFQQKPGKAPKSLLYKASSLQGGVPSKFSGSGSGTDFTLTISSLQPEDFATYYCQQYMTYPLTFGGGTKVEIK
notes: as for B1
B16: 218G4 (antibody, V domains shown)
VH: QVQLVESGGGVVQPGRSLRLSCAASGFTFSSYGLHWVRQAPGKGLEWVAVIWYDGSNKYYADSVKGRFTISRDNSKNTLYLQMNSLRVEDTAVYYCANWYYYYYGMDVWGQGTTVTVSS
VL: QSVLTQPPSVSAAPGQKVTISCSGSSSNIGNNYVSWYQQLPGTAPKLLLYDSNKRPSGIPARFSGSKSGTSATLGITGLQTGDEADYYCGTWDSSLNTVVFGGGTKLTVL
notes: as for B1
B17: 198D2 (antibody, V domains shown)
VH: QVQLVESGGGVVQPGRSLRLSCAASGFTFRSYGMHWVRQAPGKGLEWVAVIIYDGSYKYYADSVKGRFTISRDNSKNTLYLQMNSLRAEDTAVYYCARTYSGGMDVWGQGTTVTVSS
VL: QSVLTQPPSVSAAPGQKVTISCSGSSSNIGSNYVSWYQQLPGTAPKVLIYDNNKRPSGIPDRFSGSKSGTSATLGITGLQTGDEADYYCGTWDSRLNVGVFGGGTKLTVL
notes: as for B1
B18: 7E11 (antibody, V domains shown)
VH: QVQLVESGGGVVQPGRSLRLSCAASGFTFSSFGMHWVRQAPGKGLEWVAIIWHDGSNKYYADSVKGRFTISRDNSNNTLYLQMSSLRAEDTAVYYCARDLSMGGMDVWGQGTTVTVSS
VL: DIQMTQSPSSLSASVGDRVTIACRASQNIISYLNWYQQKPGKAPKFLIYTASSLQSGVPSRFSGSGSGTDFTLTISSLQPEDFAIYYCQQTYSTPLTFGGGTKVEIK
notes: as for B1

The target of the assay is T1, Human ASGR-2. Put plainly: FACS on transfected HEK 293 cells; binding = signal at least 2x irrelevant IgG. As to the method: Human ASGR-1-specific, ligand competing antibody samples were tested for binding to ASGR-1 from other species (cynomologus monkey ASGR-1, mouse ASGR-1, rat ASGR-1, dog ASGR-1, and pig ASGR-1) as well as to human ASGR-2 in FACS binding assays at normalized antibody concentrations. For cell-based assays, HEK 293 cells expressing the appropriate antigen of interest were mixed with antibody sample or controls, incubated for 1 hour at 4° C., and then washed twice. Cells with bound antibody were then incubated with Alexa Fluor® 647 IgG Fc fragment-specific detection antibody and 7-AAD viability stain for 15 minutes at 4° C., washed once and resuspended in FACS buffer. Samples were analyzed using a BD Accuri™ Flow Cytometer and an Intellicyt HyperCyt Autosampler. As a negative control, supernatants and controls were also screened against HEK 293 cells transfected with empty parental vector. […] For membrane-prep binding assays, ASGR-1 species specific membrane preps were used to coat LumAvidin® microspheres (beads) and tested for binding to selected hybridoma supernatants or controls. Briefly, ASGR-1 species specific membrane preps were incubated with streptavidin-coated LumAvidin® beads for 45 minutes in the dark at room temperature and washed twice. Beads were resuspeneded in FACS buffer containing Stabilguard®. Antigen-bound beads were then incubated with normalized antibody sample for 1 hour in the dark at room temperature, washed twice, incubated with Alexa Fluor® 488 IgG Fc fragment-specific detection antibody for 15 minutes in the dark at room temperature, washed once and finally resuspended in FACS buffer. Samples were analyzed using an Intellicyt iQue™ Screener Platform. FACS buffer supplemented with 1 mM Calcium Chloride was used in all steps. As a negative control, supernatants and controls were also screened against a non-ASGR-1 antigen membrane prep coated on the LumAvidin® beads.
As for B1, the binding result is “no binding”.

In the case of B2, the binding result is “no binding”.

Take B3: the binding result is listed as “no binding”.

B4: the binding result was “no binding”.

As for B5, the binding result is “no binding”.

In the case of B6, the binding result was “no binding”.

Turning to B7, the binding result was “no binding”.

Take B8: the binding result is given as “no binding”.

Consider B9, for which the binding result is recorded as “no binding”.

With B10, the binding result is on record as “no binding”.

On to B11, for which the binding result is “no binding”.

B12: the binding result was “no binding”.

Regarding B13, the binding result was “no binding”.

On to B14, for which the binding result was “no binding”.

For B15, the binding result is “no binding”.

With B16, the binding result is recorded as “no binding”.

As to B17, the binding result was “no binding”.

As to B18, the binding result is “no binding”.

These data come from patent US20190248902A1 (published 2019).
